Laboratory results as given in patent US20130177598A1, “DISCRETE SIZE AND SHAPE SPECIFIC PHARMACEUTICAL ORGANIC NANOPARTICLES” (The University of North Carolina at Chapel Hill, priority 2007, published 2013).

Experiment: Enzymatic activity assay of free horseradish peroxidase and PRINT particles thereof
Assay type: biochemical
Details: 10 ng/mL-10 mg/mL in buffer; compared with free horseradish peroxidase
Description: A standard enzymatic assay of horseradish peroxidase (reference P6782; Sigma Aldrich) was conduted on free horseradish peroxidase and PRINT particles thereof in the concentration range of 10 ng/mL-10 mg/mL in buffer. The substrates used were hydrogen peroxide and pyrogallol. […] See, FIG. 32.

Substance: horseradish peroxidase PRINT particles: PRINT particles of horseradish peroxidase, 200 nm x 200 nm cylinders
- retention of biological structure and function after molding (enzyme activity): retains biological structure and function
